Assay results reported in US20230151434A1, “REAWAKENING OF DORMANT TUMOR CELLS BY MODIFIED LIPIDS DERIVED FROM STRESS ACTIVATED NEUTROPHILS” (The Wistar Institute of Anatomy and Biology, priority 2020, published 2023).

Columns and labels:
KPr^p53A cells = assay: In vivo stress induction, NOD/SCID mice injected with KPr^p53A cells and PMN; parameters: species or system mouse
Description: A total of 2.5×10^4 KPr^p53A cells were intravenously injected to NOD/SCID mice. Beginning 3 weeks after injection, mice were imaged weekly. Luciferin (PerkinElmer) was intraperitoneally injected in mice before imaging according to the manufacturer's instruction. Mice were imaged with IVIS Spectrum In Vivo Imaging System (IVIS, PerkinElmer) to detect luminescent signal coming from growing cancer cells. Mice were put under anesthesia in the induction chamber with isoflurane vaporizer set to 2.5%, at a flow rate of ˜1.5 liters/min. Mice were then transferred in the IVIS imaging stage nose cone inside the IVIS manifold (IVIS manifold nose cones flow set to ˜0.25 LPM). Animals were monitored by video during imaging. Once the images of luciferase/luciferin activity were acquired, the anesthesia was turned off and the animals were returned to their cages. […] Analysis and quantification were performed with IVIS imaging system Living Image Software 4.7.4 (PerkinElmer). […] When signal was detected, mice were sacrificed, and bioluminescent images of the harvested lung were taken. […] If no bioluminescence was detected in lungs after 80 days from last PMN injection, experiments were terminated, and lung tissue were collected. […] Bioluminescence was not detected in any LL2^CisA-injected mice at 3 weeks after injection. Mice were treated with PMN or PMN-MDSC and analyzed as described above. […]

PMN [1] = assay: LC-ESI-MS analysis of lipids in PMN; format: cell-based, mouse
Experimental: Lipids were extracted by the Folch procedure with slight modifications, under nitrogen atmosphere, at all steps. Briefly, methanol (1 ml) was added to the cell suspension and mixed. After that, chloroform (2 ml) was added, and the mixture was vortexed every 15 min for 1 hour at 0° C. Next, 0.1 M NaCl (0.5 ml) was added to the samples and vortexed, and the chloroform layer was separated by centrifugation (1500 g, 5 min). The lower (organic) layer was collected. The aqueous layer was re-extracted with 1 ml of chloroform/methanol (2:1, v/v). The chloroform (lower) layers were combined, evaporated under a stream of nitrogen, and used for lipidomics analysis. MS analysis of phospholipids was performed on a Fusion Lumos trihybrid-quadrupoleorbitrap-ion trap mass spectrometer (Thermo Fisher Scientific). Phospholipids were separated on a normal phase column [Luna 3 μm Silica (2) 100 A, 150×1.0 mm (Phenomenex)] at a flow rate of 0.065 ml/min on a Thermo Ultimate 3000 HPLC system. The column was maintained at 35° C. The analysis was performed using gradient solvents (A and B) containing 10 mM ammonium formate. Solvent A contained propanol/hexane/water (285:215:5, v/v/v) and solvent B contained propanol/hexane/water (285:215:40, v/v/v). All solvents were LC/MS grade. The column was eluted for 0 to 3 min with a linear gradient from 10 to 37% B and then held for 3 to 15 min at 37% B. The column was eluted for 15 to 23 min with a linear gradient of 37 to 100% B, and then held for 23 to 75 min at 100% B. The column was eluted again for 75 to 76 min with a linear gradient from 100 to 10% B followed by equilibration from 76 to 90 min at 10% B. Analysis was performed in negative ion mode at a resolution of 120,000 for the full MS scan in a data-dependent mode. The scan range for MS analysis was 400 to 1800 m/z (mass/charge ratio) with a maximum injection time of 100 ms using 1 microscan. An isolation window of 1.2 Da was set for the MS and MS2 scans. Capillary spray voltage was set at 3.5 kV, and capillary temperature was 320° C.

PMN [2] = assay: qRT-PCR of Ptges, Ptgs2 and Arg1 in PMN; format: cell-based, mouse
Experimental: RNA from tumor cells or PMN was extracted from snap-frozen pellets with Quick-RNA Microprep or Quick-RNA Miniprep (Zymo Research) per the manufacturer's instructions. cDNA was prepared with a High-Capacity cDNA Reverse Transcription Kit with RNase Inhibitor (Thermo Fisher Scientific) per the manufacturer's instructions. qRT-PCR was performed in an ABI QuantStudio 5 Rm 422 machine (Applied Biosystems).

PMN and PMN-MDSC = assay: NET detection; format: cell-based, mouse
Experimental: PMN were cultured for 8 hours in 24-well flat-bottom plates in RPMI 1640+10% FBS. PMN were then fixed with 4% paraformaldehyde (Electron Microscopy Sciences) followed by staining with SYTOX Green Nucleic Acid Stain (SYTOX) at a final concentration of 250 nM. A Nikon TE300 inverted microscope equipped with a motorized XY stage was used to image NETs by acquiring 25 random locations per well. The z-stacks per location were then combined into an extended depth focused image. The total NET area was calculated by segmenting each image using a defined threshold pixel intensity setting. The spot detection tool in NIS-Elements Advanced Research (Nikon) was used to count the number of cells per field. The sum of the total NET area in the 25 random fields of view was divided by the total number of cells in the 25 fields of view to obtain NET area (in […]) per cell.

MPO = MPO activity in neutrophils; format: cell-based, mouse; conditions: S100A8/A9 5 μg/ml or LPS 2 μg/ml
Experimental: Neutrophils were isolated from tumor-free mice as described above, and MPO activity was measured with an MPO Fluorometric Activity Assay Kit (Sigma-Aldrich) using a VICTOR spectrophotometer (PerkinElmer).

PMN [3] = assay: ROS production in PMN (DCFDA, flow cytometry); format: cell-based, mouse
Description: FIG. 14A-FIG. 14B show the effect of S100A9 on PMN activity. (FIG. 14A) DCFDA measured by flow cytometry in PMN treated with S100A8/A9 or NE. Each dot represents an individual mouse. Mean±SEM are shown. (FIG. 14B) qRT-PCR of Ptges, Ptgs2, and Arg1 expression in mouse PMN treated with S100A8/A9 or NE. Each dot represents an individual mouse. Mean±SEM are shown.

Row | Molecule | growth of KPr^p53A cells in lung and liver of stressed mice injected with PMN (KPr^p53A cells; 1 mg/kg i.p. daily during stress induction) | survival of stressed tumor-bearing mice (KPr^p53A cells; humane end-points, n=10 per group) | content of oxidatively truncated PC species in PMN (PMN [1]; PMN incubation) | accumulation of oxidized, oxidatively truncated, and lyso-PE in PMN (PMN [1]; overnight treatment) | content of LPE containing saturated and monoenic acyl chains in PMN (PMN [1]; overnight treatment) | expression of Arg1, Ptgs2, or Ptges in PMN (PMN [2]) | NET formation by PMN and PMN-MDSC (PMN and PMN-MDSC) | MPO enzymatic activity in PMN (MPO) | ROS production in PMN (PMN [3])
1 | Cc1ccc(OCC(O)C(C)NC(C)C)c2c1CCC2 (stereo not drawn) [ICI-118,551] | abrogated this effect | markedly improved survival |  |  |  |  |  |  | 
2 | S100A8/A9: recombinant S100A8/A9, heterocomplex of two S100 calcium binding proteins (calprotectin) (protein, UniProt P27005 2-89; P31725 2-113, looked up) Protein S100-A8: PSELEKALSNLIDVYHNYSNIQGNHHALYKNDFKKMVTTECPQFVQNINIENLFRELDINSDNAINFEEFLAMVIKVGVASHKDSHKE Protein S100-A9: ANKAPSQMERSITTIIDTFHQYSRKEGHPDTLSKKEFRQMVEAQLATFMKKEKRNEALINDIMEDLDTNQDNQLSFEECMMLMAKLIFACHEKLHENNPRGHGHSHGKGCGK |  |  | No significant changes in the content of oxidatively truncated PC species | caused marked accumulation of oxidized, oxidatively truncated, and lyso-PE in PMN | did not change the content of LPE containing saturated and monoenic acyl chains in PMN | little or no effect on expression of Arg1, Ptgs2, or Ptges | did not cause substantial up-regulation of NETs | activated MPO in PMN | no effect on ROS production
